Test: label from the status in PepcDB records
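Further: failed if final PepcDB status was selected cloned or expressed and not failed if soluble or beyond.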

Row | Sequence | protein production
1 | MKTHFYRLKFKKSIFFAVFLSFFSLLFAVDYFEEGKKLLYADKPQEAVSALFKASQEAGTPKSVYLYLGVAYFRMGKYSEALTYLSQGKDKDILNGHLYYYNIGNVYFLQNQFEASELAYNEAISSNGLYAPAFLNRANTRIKLEKLEGALQDYKIYLNLNPETLQRSSIEKMISLLEGLAEEAERAKALAEAKKAAEEAERLAAEARYKKLMEDVNANLSSVDNADALSAGADNTIDYSEENELD | failed
2 | MFNKRLKQQLATLSDELNALQQFKACLESQVLNLELDGEGAIRRANQNFIQALELDGQPLAGVALESIISRHPQAVPLYREFKAALGRNESYTGQLRLQRGGGREAWLQVCVQPIRDGAGRLDHYNLICTDQS | failed
3 | MDIISSYSPIHVVGGGLAGSEAAWQIASAGVPVILHEMRGVRGTDAHKTDGLAELVCSNSFRSDDATSNAVGVIHAEMRMAGSLIMAAADRHQVPAGGALAVDRDGFSDAVTRAIHDHPLITVMREEITGLPPSDWDLAIVATGPLTAPSLAAAIQAETGEDSLAFFDAIAPIVYRESIDMDICWYQSRYDKVGPGGTGKDYINCPMDEAQYNAFVNALIAGDTVGFKEWEGTPYFDGCLPIEVMAERGRETLRHGPMKPMGLTNAHNPTVKAYAVVQLRQDNALGTLYNMVGFQTKLKYGAQAEIFRMIPGLENAEFARLGGLHRNTYINSPTLLDPSLTLKSRPGLRFAGQITGCEGYVESASVGLMAGRFAAAERKGEAISLPPATTALGSLLGHITGGHIVTDEEPGKRSFQPMNINFGLFPELEPGSIVKPEGVKRFRGKDKTIMKRQLIARRALADCAAWLGQTRTLAERA | failed
4 | MDEADSGGIVTARNVDLSSCDRELVQYPEAIQPHGAMLTVDEQSDRVLHASANCAAFIGKPPEAVIGAPIAAVLGAGWHELLGSLHRMPLDSGPVNIARESFLGSDQGWHLFAHRCGGLIILEFEKAEPEAAGTTSNLYSEVRADLAALQATEGVQAFFDLAVERIRAFTGYDRVMAYRFAEDGSGQVIAEARRDDLEPYLGLHYPATDIPAPARRLFALSWVRHLPDVGYTPVPLLAAKSPLVTGPVDMSFASLRSVSVMYTGYLKNMGVQSTLVMPLVKEGRLWGLISAMHHAAPRHISHQMRMAAEFLAHTLSLLMSAKEDAEQFERSSARKAAAEALTRLLDSEADIGAALHAAGALDLLSALIDAGGVVVQTGDEVATRGEAPAAAPLHELTSWLRERARPVFATDRLPNLDPAAQAVASQASGVLALRPLPDQPMLIAWLRPEQIEDVQWAGDPRKPVEISDADGMQRLRPRNSFALWKESVQGRAVPWRDDEKDAATRLAAAIAEIAAARKGRIERINRALDASHSELSRYTDVASAELKEHLRGIHHLTTSLRRRQGEVLDEEGRQQVATILKLTQRMDALVDALLDRSRGGSEAASETVDLEAVVDDALAPFARRIAEDRIEVRRPMRLGTAQGHREWIGEVFTNLIGNAIRYNDKPERWIEIGVEAGSPPRYYVRDNGIGIADTDQQLVFQMFHRVDQSEQKAEGAGVGLAMTRRIVAHHGGRIWVQSRLGEGATFYFTLAPDEERHDA | failed
5 | MSSALLRAAYAYDRLRAHPPEVAGQIATAMASAVHPKGEEPVFLELGVGTGRIALPLIARGYRYIALDADAAMLEVFRQKIAGVDRKVQVVQADARAIPLPDESVHGVIVVHLWHLVPDWPKVLAEAIRVLKPGGALLEGWDQAEASPEWTLQERWRAFAAEEGFPVERGLHAKRLKEVEEALRRLGLKPRTREVARWREERTPREALEALSERLYSFTQGLPEPVHARVMERLWAWAEAELGDLDRPFPVEKRFLLRVSRLG | not failed
6 | MVKKNVGLRFLSILILMALLIGNVQSFNVAAAEGVIVNGTQFKDTSGNVIHAHGGGMLKHGDYYYWYGEYRDDSNLFLGVSCYRSKDLVNWEYRGEVLSRNSAPELNHCNIERPKVMYNASTGEFVMWMHWENGINYGQARAAVAYSKTPDGKFTYIRSFRPMQDTGVMDHGLPGYMSRDCNVFVDTDGKGYFISAANENMDLHLYELTPDYKNIASLKAKLFVGQQREAPCLIKRNGYYYLITSGCTGWNPNQAKYAYSKDLASGWSQLYNLGNSTTYRSQPTFIIPVQGSSGTSYLYMGDRWAGAWGGKVNDSQYVWLPLNFISDTTLELPYYDSVKIDASSGIISEYIPDTTRYKLVNKNSGKVLDVLDGSVDNAAQIVQWTDNGSLSQQWYLVDVGGGYKKIVNVKSGRALDVKDESKEDGGVLIQYTSNGGYNQHWKFTDIGDGYYKISSRHCGKLIDVRKWSTEDGGIIQQWSDAGGTNQHWKLVLVSSPEPSPSPSPQVVKGDVNGDLKVNSTDFSMLRRYLLKTIDNFPTENGKQAADLNGDGRINSSDLTMLKRYLLMEVDL | failed
7 | MSANNTAKNMHPETRAVGSETSSLQASQDEFENLVRNVDVKSRIMDQYADWKGVRYRLGGSTKKGIDCSGFVQRTFREQFGLELPRSTYEQQEMGKSVSRSNLRTGDLVLFRAGSTGRHVGIYIGNNQFVHASTSSGVIISSMNEPYWKKRYNEARRVLSRSLEHHHHHH | not failed
8 | MNGYIINIRYQQMGRVIYMFFFAIFGIQDKNKHIGNCNNIVCPSCGRLSMYEVYKYYKYFHIFFLPIFKWDVRYIVKTSCCGCLYELDPLVGKEFEKNPSTEIREENLQRIDRYSPFKYCSNCRTEVPVEYSYCPYCGERLLEHHHHHH | failed
9 | SDIVRKTIDNDISTKWRLKTLSEKLNLSEVTIRKKLENENTNFYRILLDARMQKAARLVLDSDTHINKVSYAVGMSSVSYFIKLFSDYYGLTPKQFHLKYKHRNTGEKAAFMLYN | failed
10 | LGGVAPEQVAYAVEQAGKRLQERDNAGVKVRPARLTDLDALEGMVAYWAGLGENLPRNRNELVRDIGSFAVAEHHGEVTGCASLYVYDSGLAEIRSLGVEAGWQSQGQGKAIVQHLVEKAREMAIKKVFVLTRVPEFFMKQDFIPTSRSLLPEKVLKDCDQCPRQH | failed
11 | LRQQRLIWVVLALSCVIVISLLMLWRYTRFRSEAEAALIAETGFRRAMENSMSTGMRVLDMEGRIAYVNPAFCRMIGWNEADLIGRSPPFPYWVPGRHDQHQHTLEVLTSGKTPSSGLEVEAQRRDGSRFTARMYVSPLLDPNGDQIGWMTSMTDIT | failed
12 | VYGSEVESKIIEFTIVGADEIIAEKLGISVGDFVYKIIRLRIIHSIPTIMEHTWMPIAVIPGVEASVLEESIYSYIQNKLGLKVGTSVVRVKGIRPDDKEKQFMNLTNQDFLMRVEQVAYLTDGRTFEYSYADHLPETFEFETVITAKSYKEA | not failed
13 | MQDFKKLPTVLTAEELIDKIFRRAARVEGRNPKEKALNKLATISNVSRDYFGKIIGAHPSYENLPDFYREMVDVVVGIRQLKKSLVALKWADGMIQKVVSRAVREVKGGKNPSAVVKSAYGRVASIIEQIDDELRFLNDAKNRMREIPILQDLPTIVVAGYPNVGKSSLVARISTVKPEVASYPFTTKKINLGFAEFAGKRVQIIDTPGLLDRPLSKRNRIERRAVLALKHLADIILFVIDPTETCGYSLEKQLSLLEEIKGYFAKPTVEVYSKADMHDRRDRQAYSAVTGEGIDELIKEIEKMVKIHSQTSTVIAPSGQTSTQEQHSLEHHHHHH | failed
14 | MSGGQQERHVLILNTVGGRRAIALEAAAYSLGRDESNAIVIDFETVSRQHAILLRVPVPGTTSYRYRLVDGNANGKPSTNGTFVNGKRISSHELQHGDVILFGRKAKASYLLLSMADTEFSQYLQSIAFQSIKSDLRGAKETLVGMELSGELRRTPNRELVAAGATQLHPELEPAKDTLSSESDSEPKGNNKETLHEKESQGSKTNLVALGAIALVVVAIIAGAVWRAGFSANPPQGSPPATPTRN | failed
15 | PINVRVTTMDAELEFAIQPNTTGKQLFDQVVKTVGLREVWFFGLQYVDSKGYSTWLKLNKKVTQQDVKKENPLQFKFRAK | failed
16 | MMNDIAHNLAQVRDKISAAATRCGRSPEEITLVAVSKTKPASAIAEAIDAGQRQFSEHYVQEGVDKIRHFQELGVTGLEWNFAGPLQSNKSRLVAEHFDWCITIDRLRIATRLNDQRPAELPPLNVLIQINISDENSKSGIQLAELDELAAAVAELPRLRLRGLSAIPAPESEYVRQFEVARQMAVAFAGLKTRYPHIDTLALGQSDDMEAAIAAGSTMVAIGTAIFGARDYSKKGSLEHHHHHH | not failed
17 | MDYKKTNAPSNTVTRDMMDLCADTGNIYETVAIIGKRANQISVEMKNDLSKKLQEFASYNDNLEEVFENREQIEISRYYEKLPKPTLIAAQEYEEGKVYFRNPAKEKEKLQ | not failed
18 | GQPSNDKKNVLPDWAFGGFERPQGANPVISPIENTKFYCPMTQDYVAWESNDTFNPAATLHDGKIVVLYRAEDKSGVGIGHRTSRLGYATSSDGIHFKREKTPVFYPDNDTQKKLEWPGGCEDPRIAVTAEGLYVMTYTQWNRHIPRLAIATSRNLKDWTKHGPAFAKAYDGKFFNLGCKSGSILTEVVNGKQVIKKIDGKYFMYWGEEHVFAATSEDLVNWTPYVNTDGSLRKLFSPRDGHFDSQLTECGPPAIYTPKGIVLLYNGKNSASRGDKRYTANVYAAGQALFDANDPTRFITRLDEPFFRPMDSFEKSGQYVDGTVFIEGMVYYKDKWYLYYGCADSKVGMAIYNPKKPAAADPLP | not failed
19 | FKDLRLVSYTLLFDFIVSRVIDLIGEGGYAGKGFMIITKRPDQLAKAINDDLGRGVTFISGQGYYSKENLKIIYCIVGRNEIVKTKEMIHRIDPQAFITITEAHEILGEGFTFEKE | failed
20 | MDATMVFKRLLGSLGVGAPTVDTVLDPAPVLPGGTLTGQVHLEGGQTDFDIEHITLELVARVEAEHEDGEDEGVVVFDRFTVGGGFRLGAEEPRSVPFRVTLPWETPITELYGQPLGIVLGVRTELAVADAKDKGDLDQLTVTALPVQEAVLEAFGQLGFGFGSADLEYGHIGGTGQQLPFYQEIELVPAPQYADRLNEIELTFLAGPGGLEVVLEADKRGGLLSSGHDAVTRFSVGHHDARDWAAEVEGWVRQLVEHHTTYGAPGTHGHSTPYAGHGHHDPHGNGGRHHDDHRSGPGVGTAVAAGAAGLAVGVVGGMVAAEVVDEVGDFFEGDDEEEDEG | not failed
21 | MALTSGQVGNLLNAFDSHGGHFQTQMAFRLMWLTLTRANESVQARWDEFDLANGLWKIPKERMKARREHLLPLPRQAVSILTTMQPITGQSTYVFPNRDDRHKPMSDAAFRQALKKLGWATIYSPHGTRTTGSTRLNEMGLEHHHHHH | failed
22 | MDRHEYEHRIINRIVENHGRDTRQLLSILREVQHEFRQVSPEAQQKVAESLGVCITQVRAVVDFYSFLSTVPLGKFDIRISDSITDHMLGSREVAAGLCRKLGIQPGEPRQDGRVGLSFTSCTGLCDQGPAGLINGYAIPRLTEDRTDQIARLINDDIPLGEWPEEFFAIKENIRLADRLLGNPVRPGEALERTLALDRETMFGEIETSQLRGRGGAGFNTAWKWRFCYEGPETAAVCPPGQPAAGIERYVVCNADEGEPGTFKDRVLLQSCADQVFEGMTVCAYLVGAKQGFLYLRGEYLYLHDQLEAVLAARRRHGLLGKSILGREGFDFDIEIRLGAGAYICGEESALIESLEGNRGVPRNRPPYPVTHGYLGKPTVVNNVETFFAAAAIAVHGGEWFAEVGTEKSKGTKLLSICGDCARPGIYEYPFGVTIRQVLEDCGAADVLGVQIGGPSGTFLSDKECDRKLAYEDLATGGSFIVFDRTRDVIGIARNFTHFFAHESCGFCTPCRVGTALLKNLLDKIAEGHGATGDLAELSRLGRFVRSASHCGLGQTAANPILSTLERYPEIYQARLKTIDFEPGFDLDGALATARRLSGRDDANAHLSQS | failed
